From the supplement of paper PMC9732359
± gives the uncertainty stated by the source.

Assay: protein stability index of a GFP-peptide fusion (yeast GPS) (PSI 1-4); higher = more stable; sorted into four equal gates, so the index is relative within each strain
Procedure, shortened: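 Tiled yeast protein peptides of 17 residues were each joined downstream of GFP, on plasmids that also express Cherry. The pooled library was maintained in yeast, and mid-log cultures in leucine-free medium were sorted into four equal gates on the GFP/Cherry ratio. Plasmids from every gate were amplified by PCR and sequenced on Illumina, with barcodes linking reads to strains. The protein stability index of a peptide is its gate-number-weighted read frequency summed over the gates.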

Sequence | protein stability index (doa10∆) | protein stability index (pdr5∆) | protein stability index (san1∆) | protein stability index (ubr1∆)
NISIITLELESFLEGSK [RGR1] | 2.44 ± 0.054 | 2.48 ± 0.059 | 2.75 ± 0.059 | 2.94 ± 0.071
FRCKETHSYNFMRQNLE [RPC82] | 2.52 ± 0.078 | 1.88 ± 0.093 | 1.96 ± 0.093 | 2.44 ± 0.065
LKNTKYFQQTTIDWVEA [PRP8] | 2.93 ± 0.078 | 2.96 ± 0.08 | 2.83 ± 0.054 | 2.75 ± 0.072
TALDAEGAARGTSVYLV [DIS3] | 2.24 ± 0.13 | 1.58 ± 0.082 | 2.47 ± 0.12 | 2.28 ± 0.096
APLNFNPIIENNVDNKY [SSN2] | 2.69 ± 0.052 | 2.97 ± 0.049 | 2.79 ± 0.046 | 2.88 ± 0.046
GSKQADRMAKYLHIRDK [PGD1] | 3.08 ± 0.12 | 3.3 ± 0.097 | 3.09 ± 0.057 | 3.14 ± 0.071
NCIRILADKLENYEGKQ [YIL149C/MLP2] | 3 ± 0.3 | 3.57 ± 0.2 | 3.22 ± 0.093 | 2.81 ± 0.19
KDPDVPLVLLQQIPLLC [POP3] | 2.33 ± 0.055 | 2.57 ± 0.064 | 2.4 ± 0.06 | 2.47 ± 0.052
EGPKKCIQVNCLNCEKS [SNM1] | 2.62 ± 0.079 | 2.04 ± 0.058 | 2.8 ± 0.073 | 2.22 ± 0.049
VVRNMLALTTLSEPLIK [YCG1] | 1.87 ± 0.07 | 1.6 ± 0.059 | 1.4 ± 0.11 | 1.66 ± 0.061
TTPEKPEETPLEELAET [FAS2] | 3.28 ± 0.076 | 3.09 ± 0.074 | 3.28 ± 0.051 | 3.5 ± 0.051
KTKKEKGPNEEEKKKEH [RPN2] | 3.05 ± 0.28 | 3.32 ± 0.16 | 3.49 ± 0.081 | 3.13 ± 0.19
QQKQQQQQQQHQQQQQQ [SNF5] | 2.73 ± 0.033 | 2.8 ± 0.03 | 2.81 ± 0.029 | 2.769 ± 0.026
IHFADVAHITTKSPAYP [RGR1] | 2.42 ± 0.054 | 2.61 ± 0.055 | 2.55 ± 0.045 | 2.56 ± 0.033
DPSQNRLTGSLLAHKVA [RPC37] | 2 ± 0.05 | 2.15 ± 0.06 | 1.69 ± 0.095 | 2.31 ± 0.038
TRNEQTTIQTEKVRPTP [MCD1] | 2.82 ± 0.04 | 2.99 ± 0.046 | 2.88 ± 0.036 | 3 ± 0.031
AIPNPEDVVAISSRTFG [RPS0A] | 3.22 ± 0.1 | 2.94 ± 0.05 | 2.91 ± 0.077 | 2.94 ± 0.043
ESYKPSVQLPDMAKLKK [SWI3] | 2.94 ± 0.081 | 2.9 ± 0.081 | 2.81 ± 0.06 | 2.79 ± 0.068
DILLNERVWNICLYSSF [AAR2] | 1.91 ± 0.066 | 1.68 ± 0.064 | 1.55 ± 0.14 | 1.84 ± 0.04
SDPAAKKTATEPKQKAN [SRP21] | 3.21 ± 0.11 | 3.04 ± 0.09 | 3.32 ± 0.046 | 3.01 ± 0.11
RYKPGTVALREIRRFQK [HHT1] | 3.19 ± 0.11 | 2.97 ± 0.091 | 3.07 ± 0.065 | 3.07 ± 0.078
FVIGEQGKPYISLPKGK [RPS4A] | 3.34 ± 0.068 | 3.21 ± 0.065 | 3.25 ± 0.051 | 2.41 ± 0.053
DKINQLSVVKYLLASLK [RPN9] | 2.02 ± 0.16 | 2.15 ± 0.2 |  | 
CASIPIAIIKDTSDIIV [RRP46] | 1.73 ± 0.044 | 1.88 ± 0.043 | 1.75 ± 0.065 | 1.6 ± 0.04
LTNGVTEHVRQNAKLLA [RRP6] | 1.6 ± 0.041 | 1.88 ± 0.073 | 1.99 ± 0.23 | 1.59 ± 0.069
RVLTQDGRVYIGQLMAF [SMB1] | 3.48 ± 0.098 | 3.26 ± 0.083 | 2.63 ± 0.09 | 3.05 ± 0.041
PSLLLQKDQDGRIPLHW [NAS6] | 3.28 ± 0.28 | 3.38 ± 0.21 |  | 

Sequence | protein stability index (doa10∆) | protein stability index (pdr5∆) | protein stability index (san1∆) | protein stability index (ubr1∆)
SQYFKFKNDFNSFYYTS [RPN9] | 2.1 ± 0.075 | 2.33 ± 0.06 | 2.51 ± 0.084 | 2.58 ± 0.056
ILRKELSEEKEVIFTDV [MCD1] | 2.66 ± 0.15 | 3.02 ± 0.23 | 2.32 ± 0.12 | 2.73 ± 0.17
KMLNEFVKKTSEEIDSL [SMC2] | 2.61 ± 0.099 | 3.19 ± 0.15 |  | 3.09 ± 0.12
VVEEFTPVVLATPIPEE [RPS5] | 2.69 ± 0.13 | 2.27 ± 0.069 | 2.13 ± 0.056 | 2.17 ± 0.049
CITLDQLAVRAPKGQNT [RPL18A] |  | 3.39 ± 0.2 | 2.94 ± 0.079 | 3.38 ± 0.095
SCGYPSAKTRSHNWAAK [RPL37B] | 2.95 ± 0.076 | 3.15 ± 0.059 | 3.3 ± 0.09 | 2.91 ± 0.069
KMATDNKINSRNSWNFA [BRN1] |  | 2.94 ± 0.12 |  | 1.92 ± 0.12
IEKWTANLLPARQFGYV [RPS22A] | 1.6 ± 0.075 | 1.92 ± 0.088 | 1.8 ± 0.15 | 2.14 ± 0.17
GKQAIGAIAYNQFKRID [RET1] | 2.27 ± 0.2 |  |  | 2.28 ± 0.14
VPSAKPLILTPPQLANQ [SNF11] | 2.63 ± 0.049 | 2.26 ± 0.052 | 2.64 ± 0.052 | 2.03 ± 0.033
SHFVSAVSTIASISLAI [RPP0] | 1.81 ± 0.073 | 1.37 ± 0.073 | 1.21 ± 0.13 | 1.11 ± 0.066
LISLIMTTWRKLYTKEL [YMR129W/POM152] | 2.35 ± 0.092 | 1.15 ± 0.093 | 1.42 ± 0.17 | 1.16 ± 0.044
KYIVKASSGPRYIVGVR [RPT4] | 1.87 ± 0.096 | 2.66 ± 0.13 | 3.4 ± 0.089 | 1.89 ± 0.075
QPMISPDNSIFGDTKSE [SWI3] | 3.14 ± 0.059 | 3.38 ± 0.087 | 2.94 ± 0.098 | 3.1 ± 0.061
EGYGLRDVMCTDGVIGS [RPO31] | 2.35 ± 0.11 | 3.29 ± 0.14 | 2.58 ± 0.14 | 2.84 ± 0.06
RGVDAGKGNTFEKVGSH [RPN14] | 2.71 ± 0.24 | 2.98 ± 0.17 | 3.67 ± 0.11 | 3.33 ± 0.12
KRPGKLSDYIPGPYPNE [CYT1] | 3.19 ± 0.059 | 3.22 ± 0.06 | 3.24 ± 0.041 | 3.16 ± 0.037
DSKLLPKNIEPPLTSQY [SWI3] | 2.89 ± 0.058 | 2.91 ± 0.049 | 2.92 ± 0.041 | 2.92 ± 0.04
KEPRLVIVTDPRLDAQA [RPS0B] | 3.41 ± 0.25 | 3.42 ± 0.17 |  | 2.61 ± 0.16
TSTKPSFSFGAPESMKS [YOR098C/NUP1] | 2.97 ± 0.053 | 3.07 ± 0.062 | 3.15 ± 0.043 | 3.1 ± 0.046
ELGTAVGKLFRVGVVSI [RPL30] | 1.31 ± 0.13 | 1.17 ± 0.1 | 1.27 ± 0.23 | 1.29 ± 0.095
GLAPDARVLSNYLRQQC [PRE5] | 2.72 ± 0.19 | 2.11 ± 0.21 |  | 1.47 ± 0.28
ILGELKRVKSYMDKAKQ [LRP1] | 2.23 ± 0.079 | 2.35 ± 0.082 | 1.89 ± 0.12 | 2.36 ± 0.065
EKQIEELLDNCIETFVA [SRB6] | 2.62 ± 0.13 |  | 3.19 ± 0.16 | 3.32 ± 0.12
TIRTRKVISNPLLARKQ [RPS24A] | 1.74 ± 0.1 | 1.88 ± 0.066 | 2.35 ± 0.13 | 1.87 ± 0.089
YNLLVKISLHKREYLEV [RPN5] | 1.5 ± 0.1 | 1.21 ± 0.12 | 1.34 ± 0.17 | 1.43 ± 0.092
YDRKKLPRKEVDDVLGG [RPC11] | 3.2 ± 0.1 | 3.64 ± 0.14 | 3.29 ± 0.065 | 3.32 ± 0.099
